# According to paper PMC4639866:
# B1: GFP::Fzy-DYY* (natural protein)
# chain: MSQFNFVSDLQNALIMDGETRGPAPRWKKKLEASLNGSVNTTRSVLSVSYNTSFSGVQAPTKTPGKSSEGKTKKSNTTPSKTPGGGDRFIPNRAATNFELAHFLVNKDSGDKSDEENDKATSSNSNESNVQASAHKGDRQKLISEVAQVGDSKGGRILCYQNKAPAAPETHNNPLKVVYSIKTPISTKSGSRYIPTTSERILDAPDFINAAALNLMDWSADNIVAVALGSCVYLWNAQTGNIEQLTEFEEGDYAGSLSWIQEGQILAIGNSTGAVELWDCSKVKRLRVMDGHSARVGSLAWNSFLVSSGSRDGTIVHHDVRAREHKLSTLSGHTQEVCGLKWSTDFKYLASGGNDNLVNVWSAASGGVGTATDPLHKFNDHQAAVRALAWCPWQPSTLASGGGTADRCIKFWNVNNGTLMKSVDSKSQVCSLLFSRHYKELISAHGFANNQLTIWKYPTMVKQADLTGHTSRVLQMAMSPDGSTVISAGADETLRLWNCFAPDPLASKKAVSTSKGKQSVFRQSIR
# Molecular target: GST::BubR1 [1–337] (Drosophila)
# Test: pull-down
binder,measurement,value
B1,decrease of in vitro binding efficiency against wild-type Fzy,50%
